“Also recorded” adds a separate entry of the source.
Columns and labels:
Arabidopsis thaliana = test: Herbicide resistance of transgenic Arabidopsis thaliana seedlings on plate medium (root growth); assay type: in vivo; conditions: Arabidopsis overexpressing the gene
Procedure: Expression in Arabidopsis thaliana was regulated by its AtUbi10 Arabidopsis thaliana ubiquitin promoter and the MAS (mannopine synthase) terminator. Hygromycin resistance gene (HygR=hpt) served as the selection marker.
Preparation of Agrobacterium infection solution: An activated Agrobacterium (GV3101) monoclone was picked and inoculated in 30 ml YEP liquid medium [yeast powder 10 g/L, tryptone 10 g/L, NaCl 5 g/L, 25 mg/L Rifampicin and 50 mg/L Kanamycin], shaking-cultured at 200 rmp/min, 28° C. overnight until the OD600 was about 1.0-1.5, then centrifuged at 6000 rmp/min for 10 min to collect the bacteria, and the supernatant was discarded. Arabidopsis thaliana infection solution (sucrose 50 g/L, Silwet L-77 300 μL/L, no need to adjust pH) was used to resuspend the cells to OD600=0.8 for later use.
Genetic transformation of Arabidopsis thaliana by flower dipping: Before transformation of Arabidopsis thaliana plants, attentions were paid to whether the plants were growing well, the inflorescences were abundant, and no stress response occurred. The first transformation was performed when plants were about 20 cm high. Plants could be properly watered if the soil was dry. The grown siliques were cut off with scissors the day before transformation. The inflorescences of the plants to be transformed were soaked in the above-mentioned Agrobacterium solution for 30 seconds to 1 minute, which was stirred gently during the period. And a layer of liquid film should appear on the infiltrated plant. The transformed plants were cultured in a dark environment for 24 hours, and then taken out and grown in a normal light environment. A second transformation could be performed in the same way a week later.
Seeds were treated with disinfectant for 5 min, washed with sterile water for 5 times and then one part was spread on MS transgenic screening medium (containing 30 μg/mL hygromycin, 100 μg/mL carbenicillin) to screen transgenic seedlings, and the other part was spread on MS medicated medium [containing 250 μg/mL Cefotaxime sodium and 0.3 μM 2,4-D] to screen herbicide-resistant seedlings at mean time. The petri dish spread with seeds was placed at 4° C. for vernalization for 3 days, and taken out to a illumination incubator for cultivation (temperature of 22° C., 16 hours of light, 8 hours of darkness, light intensity of 100-150 μmol/m^2/s, humidity of 75%). After one week, it was observed that the roots of the wild-type control seedlings were not elongated and their growth was inhibited, while the transgenic seedlings had normal root growth, showing drug resistance. The transgenic positive seedlings and herbicide-resistant seedlings were photographed and transplanted into small pots filled with soil for cultivation.
The transgenic lines with the nine vectors, pQY2309, pQY2310, pQY2311, pQY2312, pQY2313, pQY2314, pQY2315, pQY2316 and pQY2317, overexpressing AAD gene in the T2 generation were further tested on plate medium for their resistance to 2,4-D, 2,4-DB sodium and MCPA herbicide. Two events were tested for each transformant.

[1] = Chromogenic reaction of degrading herbicides in bacteria: 2,4-D; assay type: cell-based, Escherichia coli; conditions: recombinant E. coli expressing the gene, 2,4-D added to the medium, red = phenols
Procedure: (§1) To transform the plasmids to be tested, an AAD12-expressing plasmid and a blank control plasmid pET15b were respectively transformed into the protein expression E. coli BL21(DE3) strains. A monoclone was selected and inoculated in a 10 ml centrifuge tube with 3 ml LB medium, and cultivated at 37° C., 200 rpm for 6-8 hours. The culture medium was added with 0.1 mM IPTG and 2 mM α-ketoglutaric acid, and then 0.5 mM 2,4-D. The temperature was switched to 28° C. and the cultivation continued overnight. In the next morning, 200 μL of each bacteria solution was taken and centrifuged to precipitate thallus, 180 μL of the supernatant was taken and added in a 96-well plate, and 20 μL of borate buffer of pH 10 was added. Then the mixture was added with 2 μL of 8% potassium ferricyanide and mixed well, followed by adding 2 μL of 2% 4-aminoantipyrine, and placed at room temperature for 5 min to observe the color and detect the A510 value.
The bacteria solution also appeared red when 2,4-D was directly added into the medium of AAD12-expressing bacteria, as shown in FIG. 1.
2,4-D was added into these bacteria solutions of AAD gene-expressing recombinant E. coli and cultivation was continued for color development.

[2] = assay type: cell-based, Escherichia coli
Procedure: as §1, with “The culture medium was added with 0.1 mM IPTG and 2 mM α-ketoglutaric acid, and then 0.5 mM 2,4-D.” left out, “value. […]” for “value.”

Row | Molecule | Resistance of transgenic Arabidopsis thaliana: 2,4-D (Arabidopsis thaliana) | Chromogenic reaction of degrading herbicides in bacteria: 2,4-D [1] | Chromogenic reaction of degrading herbicides in bacteria: 2,4-D ([1]; listed as D75) | Chromogenic reaction of degrading herbicides in bacteria: MCPA [2]
1 | QYD31: AAD-like candidate enzyme, SEQ ID NO. 61 (protein, Synthetic polypeptide, QYD31, D31) MKVEHLTEATFGSVVTDIDLETIDDAEWRELYDLWIERALLVFPGAFLSAEGQDAFARRFGDLEFSRAALSNIGKDGKVHHENDDEVVKSLRGNEGWHIDSTYMPVQAKGAVFSAEIVPSSGAATGWADMRSAYEELDAETRERLADLTAYHSLYYSQGRAGNLPDEPNEDGTYNLYGYHDMEVSLRPLIKIHPITERPSLLIGRHAHDIVGMDPAESESLLDDLNDWACQPPRTYHHQWDVGDAVLWDNRRLQHRGTPFDMTEPRRMWHTRIAGDPSSELALNHHPDTVPSDDVERHPTGTWAC | Yes | – | – | –
2 | QYD5: AAD-like candidate enzyme, SEQ ID NO. 9 (protein, Synthetic polypeptide, QYD05, D5) MPFAGELPSAIETQVSKILALIAAYRHRSPNVPDRFAQFVPELEKQLADTVSKKEPVRFVLPAFPFKAPVEGNKRKTLGSLPDKAEEIALKTLDGFADSIAEIYEAGATVVLVSDASVYGDLLNVADAEAFTYHQELQKLASSLGLEHLEFVRPGALAGIAPKDAHTLEEYSDHVNKTRNLLDGPLAQDVNPSEDENVQATSKHYDTALPTTDDPEAFKTAMLKRGKAYAKLIASSSETTIRLSIHESNNVGKITLDLFPPSTNPDFITPWHGAVAVLADASVRIVDASTVDMTKFEVITNAEGRPWLLREKSELFNWFGMELDFEPLFPCGMVVRPRNGYGPYKFEDVNMKQVRRLALSTAPLLLRGFTMEIEKEVFRQKARELGEIQMWPFGDILEVRENADFNMNNVLTREAMPFHYDGVFKTIQDEKTGEWISTPPLFQMFRNRAASQQKGGLTLFSSSRNLIPLLGPDSIPLDELRKLKWKTFTVVNEAFGGHELLLPFIASHPETGADTFRFHEPWPESKCISGSSEPTIVQVVGWPAAESDALCAKLTDLLYDRRVAYRHQWTAGDFIFNDNATTHHTRTAFENGHREHWRVHVS | Yes | – | – | –
3 | QYD14: AAD-like candidate enzyme, SEQ ID NO. 27 (protein, Synthetic polypeptide, QYD14, D14) MTTTKTKSFITIKNKRFHYIWLRENCPSCRYAAPYQQLYDPNISDRPEYPQPLSVELNEETLTIDWDETPAHRSVFSVEWLLKNSYDPQPELESDNYIFWERAKLELKPPQTYNAETINNDGWMEQLFSLGFVILENIPPEKLESFLSSIGPIFNADYGTIMPLETRDKTTESLPSRDGCPLPPHHDLSYWGGHRLVEFLYCVENQNSGGESTLVDGFQVAQDFSQDYPQYYQTLLETPVQFWLVDKTHQYRFCNIATILECDRYGNLTTVRFSKRNCRPHLPFEQLEDFYQAYHTFFHYLKKNDYKHQFQLRSHNCLLFQNFRILHGRTAFDPALGKRKLNSGYVDWNFFVGRRNFQ | Yes | – | – | –
4 | QYD75: AAD-like enzyme, SEQ ID NO. 149 (protein, Synthetic polypeptide, QYD75, D75) MPSFNIAPIDASFGAVVTGIRLATVDDERWRELHQAWLEHALLIFPGQHLSRDEQISFARRFGPLEFDMAAISNVKSDGTLRIEADNDDVVKILKGNMGWHADSTYMSVQAKGAVFSAEVVPAAGGQTGFADMRAAYDALDDGLRTKVETLAAHHSLHYSQAKLGHQPEAGSAYSGYGFHAGPVPLRPLVKTHPETGRKSLLIGRHAHNIPGLDPDESERLLDELVDFACQAPRVYHHSWSAGDVVIWDNRCLLHRATPWDMTQPRVMWHSRIAGDPVAEASLN | – | Yes | could degrade 2,4-D; also recorded: capable of degrading 2,4-D | Yes
5 | QYD1: AAD-like candidate enzyme; 100.00% identical to US20170022515-0011 (AAD1) (protein, Synthetic polypeptide, QYD01, D1) MAHAALSPLSQRFERIAVQPLTGVLGAEITGVDLREPLDDSTWNEILDAFHTYQVIYFPGQAITNEQHIAFSRRFGPVDPVPLLKSIEGYPEVQMIRREANESGRVIGDDWHTDSTFLDAPPAAVVMRAIDVPEHGGDTGFLSMYTAWETLSPTMQATIEGLNVVHSATRVFGSLYQAQNRRFSNTSVKVMDVDAGDRETVHPLVVTHPGSGRKGLYVNQVYCQRIEGMTDAESKPLLQFLYEHATRFDFTCRVRWKKDQVLVWDNLCTMHRAVPDYAGKFRYLTRTTVGGVRPAR | Yes | Yes | – | –
6 | QYD2: AAD-like candidate enzyme; 100.00% identical to US20170009214-0019 (AAD2) (protein, Synthetic polypeptide, QYD02, D2) MTIAIRQLQTHFVGQVSGLDLRKPLTPGEAREVESAMDKYAVLVFHDQDITDEQQMAFALNFGQREDARGGTVTKEKDYRLQSGLNDVSNLGKDGKPLAKDSRTHLFNLGNCLWHSDSSFRPIPAKFSLLSARVVNPTGGNTEFADMRAAYDALDDETKAEIEDLVCEHSLMYSRGSLGFTEYTDEEKQMFKPVLQRLVRTHPVHRRKSLYLSSHAGKIASMSVPEGRLLLRDLNEHATQPEFVYVHKWKLHDLVMWDNRQTMHRVRRYDQSQPRDMRRATVAGTEPTV | Yes | Yes | – | –
7 | QYD3: AAD-like candidate enzyme; 100.00% identical to US20160002662-0002 (AAD13) (protein, Synthetic polypeptide, QYD03, D3) MSPAFDIAPLDATFGAVVTGVKLADLDDAGWLDLQAAWLEYALLVFPDQHLTREQQIAFARRFGPLEFEMAAISNVRPDGSLRVESDNDDMMKILKGNMGWHADSTYMPVQAKGAVFSAEVVPSVGGQTGFADMRAAYDALDEDLKARVETLQARHSLHYSQSKLGHQTKAADGEYSGYGLHDGPVPLRPLVKIHPETGRKSLLIGRHAHAIPGLEPAESERLLQQLIDFACQPPRIYHHDWAPGDAVLWDNRCLLHQATPWDMTQKRIMWHSRIAGDPASETALAH | Yes | Yes | – | –
8 | QYD4: AAD-like candidate enzyme; 99.65% identical to US20100251432-0002 (AAD13 mutant) (protein, Synthetic polypeptide, QYD04, D4) MSPAFDIAPLDATFGAVVTGVKLADLDDAGWLDLQAAWLEYALLVFPDQHLTREQQIAFARRFGPLEFAMAAISNVRPDGSLRVESDNDDMMKILKGNMGWHADSTYMPVQAKGAVFSAEVVPSVGGQTGFADMRAAYDALDEDLKARVETLQARHSLHYSQSKLGHQTKAADGEYSGYGLHDGPVPLRPLVKIHPETGRKSLLIGRHAHAIPGLEPAESERLLQQLIDFACQPPRIYHHDWAPGDAVLWDNRCLLHQATPWDMTQKRIMWHSRIAGDPASETALAH | Yes | Yes | – | –
